Reference: a protein production outcome set (Wang et al. 2014)

assay: label from the status in PepcDB records

Protein production, failed:
MRTRWLPRGRGLGSASARLRSAVAGRGTVRAELGYGAFLSYSGERDRRWLPQLRHAIEKQSRPWYKPPHIRVFLDKTGVSIGPELWGKIEAGLARSDWLVVLASPEARASVWVDREIAWWLEHKSVHTILLVVTAGQLVWDEERGDWDPERSTALPARLAGKFERQPVWKSVDPRPDGDAVFSTDDAGFSPDVDGVAFGVASVVRGLSEDELRSEGLRDTRRNLRTARIVATALGCLLLVASTLSVVAVLSRAEATRQRDQAVVQQLITQSSLLAERDPFAARLKALAAWRIDPSPETRFAVLDAAVNPASGVLSHSVPVDSVAFSPDGRTVASGGSDGVVRIWRTGTQRTAGRPLIGHHQGITSIAFAPDGRTLASSGFDGTVRLWDLADRTQIGAPFNAGAGSVRSVAFGRDGRTLVTVDEADSGTVRVWDVATHRQTGHPLDGPGPVLGTNADGSRVGSSTSQGGIRLWDTASGAPAGGALKGGDGVVTALSFSSDGKTFATADLVGNLRLWDIEARAPVGEPIASPATSTGVRAITFSPDGAMLAAAYEGGGVRLWDLRRRAQVGGPLLAHTSTVESVAFSPDGSVLASASADTTVRLWDVRTLRQAGAPIDTGGKGAAALSPDGRSLAVVDSEQAVRLWDVVARRRVGEPLVRGVYSFSPSLAFRADGAVLAIGADGLRLREVATRRPVGEPLLGTGDVGALSFGPDGRTLVSGGPDSVHVWDLTARPPTGTALGPRSVGVALSPDGRSLATTTQDDTVVFWDMATRRRIGETPGDHTAQITAVAWSPDGTTLATAGRDDTVRLWDAATRERIGAPLRGHHGGLTSVVFSPDGATLATGGNDHTVRLWDVATERPIGAPLEGHGAGVTGVAFTPGGDTLVSWAQDGTARLWNVAATVDPVRSLCAWADGAFTTDRWHEDVPAGPASRTLCRK
MRTSGGQMNISSATLANTQRTIDSYEGCADDYSRIVDQFPWPSLEAALRQVATAAGKGGQILEIGSGAGWDADFLETQGVSVRRTDATRRFLELQAARGKKGELLNVITDDLGGPYDAVVALCVLIHAPRDQTGPVLEKIVAALRPGGVFLVSMRDGDGETSGAYHMSYWRRDDFALCIKEAGLALEWDAHRVNRDGDGWHTFYARRPE
MRTSRVLAGILAATLTVSLAACSQDSSETSSNSSSAASQSSDVSNEAFPVTIEHAFGETTIESKPERIATVGWSNHEVPLALGVTPVGFEKVTWGDDDNNGILPWVEETLSKLGSDEPVLFDATDSIPFEEIANTAPDVILASYSGITQEDYDQLSQIAPVVAYPEIAWGTSLDEMIEMNSKAIGLEQEGKDLIADLDAEVASAIDANPELKDAKPVFAFFDESDFSQIGVYTSIDPRMSFLLDAGVQEASVLKEHSSPDSFYEQVSAENPETFDDVDVIITYGTEDDAANAELLSKMQADPLLSRIPAIAEGKVVFLGANPLAASANESPLSIPWGINDYFAKLAEPLK
MRTWKMRKDGQRIDYLGRKWRNLGGPFMEVSRVVTWIIIITLVALAIKTILPFFSPLFFAFITAYALYPLHIKLKERIGSKNSAILLTLFLLLGALMILLILVYTLTPVIGQAYDYLTNLEKIKINIPLVPKSVISSLEGVIDEFIERGKGYLVSLTFSVPKYLLQVIVYLTFVYFFLVKEKEARELITFEDEKLIRIIERGNLTLQALIRVWLLLNIVKGILMTLGFLIFKVSNLPTAILAGLLTVLFSFIPLFEGWMIWLAGAFYLVKQGHIIAGIGLAVYGFTLVSPLPDFTIRPKLVAREAEFNDVLVLIGMIGGTWGLGLKGLIIGPIVLNVAIEMLREWKNVQAKTERS
MRTYLVLFSILLVFLAGCISTESKVEDTTTAVTFVSVTDFTGETSTINSPVERVVSNYGLIPPIIYLFGEGDKIVAGRGVMGADEFIDAVDPEFKTRSKDIKSDNVEEIKSLNPDVIFAPSWGSQQGQYPQLKSLGIPVVFIDIETASNYYKTIEMMGEVFQKEAYAQELIDYYNQSTNDVLKRTASISENEKPRVLFLVYDQRKNSYWTPGGEFYQNNLITMAGGKTVSSDLPTGKAQINVEQAASWNPDVIITSAHTMEYPSTKVKEDVLTDEGWKEINAVKSGNVYAMPFDGESWDTLGSKYVLGLYWTAKTLHPDMYTDVDILNLTSSEYERFFNVSIDEVTLVGDNIE
MRVALAGRPQEALDVALPAAELPEHLRWRLRSWQADAQEALGQSAEATLLYAEAAHLAAGLNRAVMLQEQAALLLQQGDFEEARQVLERARTLYTGPRPGTDPNDEGLNLATWHYLMAQVRLNLGQPEAAQDDIREAARLEGLSGDPSYGVALVQGQVLSHLGQLEEALEAFGQALARATDPDRPYANHELGVALLDLDRPLEAREKLEEVLLVPDYPFHPEVLADIAECDYRLGRLPEAQLAAEQALNQGAVVPASVVLGNVALDYYHLDDALDHYERVVREAVHGSRDWVLGHQMAADVMAQQGFPDPAAAYAHAQQALEHTPESDDWYVTLQDHLSRAQALMGSAGGRTLN
